Residue numbers refer to the chain shown, from its start. Names and notes keep the numbering of the source.
Assays:
[1] = biological target: T1, wild-type Aquaporin-2 (untagged) (human, UniProt P41181 1-271)
T1 sequence (looked up): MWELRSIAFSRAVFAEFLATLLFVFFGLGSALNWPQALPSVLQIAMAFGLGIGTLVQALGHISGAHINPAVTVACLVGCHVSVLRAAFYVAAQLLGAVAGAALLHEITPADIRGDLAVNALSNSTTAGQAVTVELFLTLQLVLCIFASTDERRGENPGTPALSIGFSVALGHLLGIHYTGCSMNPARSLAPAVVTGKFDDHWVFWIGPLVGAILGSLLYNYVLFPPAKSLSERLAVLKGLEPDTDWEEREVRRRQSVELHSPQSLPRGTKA

[2] = biological target: T1, wild-type Aquaporin-2 (untagged); remark: listed apart in the source
[3] = biological target: T1, wild-type Aquaporin-2 (untagged); assay: cell-based or functional assay
[4] = biological target: T2, GFP-tagged wild-type Aquaporin-2 (human, UniProt P41181 1-271); assay: co-IP; Xenopus oocytes co-injected with 0.5 ng mRNA of an untagged AQP2 variant and 1 ng (equimolar) of a GFP-tagged form, 24 h; total membranes solubilised in 2% deoxycholate in PBS, 100,000 x g supernatant; IP with goat anti-GFP and protein-G magnetic beads at room temperature; blot with anti-AQP2 of the untagged 29 kDa band; densitometry in % of wt-AQP2, 4 assays; settings: partners not purified
T2 construct: Aquaporin-2 (AQP2), human, wild type, from pT7Ts-GFP-AQP2 (subcloned through the pAc-GFP vector); 58 kDa with GFP; also called GFP-wt-AQP2; GFP-tagged-WT; source: Xenopus laevis oocytes, cRNA injected; total membranes solubilised in 2% deoxycholate
T2 sequence (looked up): T1 sequence (looked up)

[5] = biological target: T3, GFP-tagged Aquaporin-2 D150E (human, UniProt P41181 1-271, D150E); assay: as above; settings: partners not purified
T3 construct: Aquaporin-2 (AQP2), human, recessive NDI mutation D150E, GFP-tagged form; The methods describe only how pT7Ts-GFP-AQP2 (wild type) was made; also called GFP-tagged D150E; source: Xenopus laevis oocytes, cRNA injected; total membranes solubilised in 2% deoxycholate
T3 sequence (looked up): T1 sequence (looked up) with D150E

[6] = biological target: T4, GFP-tagged Aquaporin-2 V24A (human, UniProt P41181 1-271, V24A); assay: as above; settings: partners not purified
T4 construct: Aquaporin-2 (AQP2), human, recessive NDI mutation V24A, GFP-tagged form; The methods describe only how pT7Ts-GFP-AQP2 (wild type) was made; also called GFP-tagged V24A; source: Xenopus laevis oocytes, cRNA injected; total membranes solubilised in 2% deoxycholate
T4 sequence (looked up): T1 sequence (looked up) with V24A

B1: Aquaporin-2 L22V (untagged) (natural protein)
chain: T1 sequence (looked up) with L22V
- net increase (gain of function) in water permeability (Pf) of oocytes when expressed along wt-AQP2, in % of the wt-AQP2 activity (% of the wt-AQP2 activity) [1]: 106

B2: Aquaporin-2 A147T (untagged) (natural protein)
chain: T1 sequence (looked up) with A147T
- net increase (gain of function) in water permeability (Pf) of oocytes when expressed along wt-AQP2, in % of the wt-AQP2 activity (% of the wt-AQP2 activity) [1]: 45

B3: Aquaporin-2 T126M (untagged) (natural protein)
chain: T1 sequence (looked up) with T126M
- net increase (gain of function) in water permeability (Pf) of oocytes when expressed along wt-AQP2, in % of the wt-AQP2 activity (% of the wt-AQP2 activity) [1]: 42

B4: Aquaporin-2 R254Q (untagged) (natural protein)
chain: T1 sequence (looked up) with R254Q
- water permeability (Pf) of oocytes injected with 1 ng mRNA mixtures of wt/mut ratios 4/0 to 0/4, in % of pure wt-AQP2; the printed value is of the 2/2 ratio; dominant negative effect (% of pure wt-AQP2) [2]: 14

B5: Aquaporin-2 R187C (untagged) (natural protein, human, UniProt P41181 1-271, looked up)
chain: T1 sequence (looked up) with R187C
- gain of function in water permeability (Pf) of oocytes on coexpression with wt-AQP2 (specific activity with wt-AQP2 minus without), in % of wt-AQP2 activity; not functionally recovered [3]: 0.4 % of wt-AQP2 activity

B6: Aquaporin-2 D150E (untagged) (natural protein, human, UniProt P41181 1-271, looked up)
chain: T1 sequence (looked up) with D150E
notes: Aquaporin-2 (AQP2), human, recessive NDI mutation D150E from reported clinical cases, made by site-directed mutagenesis in pT7Ts; also called rec-AQP2; source: Xenopus laevis oocytes, cRNA injected; total membranes solubilised in 2% deoxycholate
- co-precipitated untagged band, densitometry in % of wt-AQP2 (wt/rec heteromers) [4]: 86 % of wt-AQP2
- co-precipitated untagged band, densitometry in % of wt-AQP2 (rec/rec homomers) [5]: 30 % of wt-AQP2
- gain of function in water permeability (Pf) of oocytes on coexpression with wt-AQP2 (specific activity with wt-AQP2 minus without), in % of wt-AQP2 activity [3]: 65.2 % of wt-AQP2 activity

B7: Aquaporin-2 V24A (untagged) (natural protein, human, UniProt P41181 1-271, looked up)
chain: T1 sequence (looked up) with V24A
notes: Aquaporin-2 (AQP2), human, recessive NDI mutation V24A from reported clinical cases, made by site-directed mutagenesis in pT7Ts; also called rec-AQP2; source: Xenopus laevis oocytes, cRNA injected; total membranes solubilised in 2% deoxycholate
- co-precipitated untagged band, densitometry in % of wt-AQP2 (wt/rec heteromers) [4]: 75 % of wt-AQP2
- co-precipitated untagged band, densitometry in % of wt-AQP2 (rec/rec homomers) [6]: 26 % of wt-AQP2
- gain of function in water permeability (Pf) of oocytes on coexpression with wt-AQP2 (specific activity with wt-AQP2 minus without), in % of wt-AQP2 activity [3]: 63.9 % of wt-AQP2 activity
- water permeability (Pf) of oocytes injected with 1 ng mRNA mixtures of wt/mut ratios 4/0 to 0/4, in % of pure wt-AQP2; the printed value is of the 2/2 ratio [3]: 87 % of pure wt-AQP2
